Each block holds one substance with its values, some of them ahead of it.
What was measured:
[1] = target: epitope-tagged human PAR3 (FLAG epitope fused to amino acid 17 of PAR3) (human) (UniProt O00254); experiment: cell-based or functional assay
[2] = target: epitope-tagged human PAR3 (FLAG epitope fused to amino acid 17 of PAR3) (human) (UniProt O00254); experiment: antibody binding to the FLAG epitope on the surface of transfected Cos 7 cells
[3] = target: α-thrombin (Homo sapiens (Human)) (UniProt P00734); experiment: cell-based or functional assay
human PAR3 = target: T1, human PAR3 (Homo sapiens, UniProt O00254); experiment: Phosphoinositide hydrolysis in Cos 7 cells transfected with human PAR3; assay type: cell-based; details: Cos 7 cells expressing human PAR3; peptide concentrations up to 100 μM
T1 construct: The human PAR3 cDNA used for the functional studies presented below was cloned from a Lamda gt 10 intestinal cDNA library; expressed in transfected cells; host or cells: Cos 7 cells
T1 sequence (O00254 22-374): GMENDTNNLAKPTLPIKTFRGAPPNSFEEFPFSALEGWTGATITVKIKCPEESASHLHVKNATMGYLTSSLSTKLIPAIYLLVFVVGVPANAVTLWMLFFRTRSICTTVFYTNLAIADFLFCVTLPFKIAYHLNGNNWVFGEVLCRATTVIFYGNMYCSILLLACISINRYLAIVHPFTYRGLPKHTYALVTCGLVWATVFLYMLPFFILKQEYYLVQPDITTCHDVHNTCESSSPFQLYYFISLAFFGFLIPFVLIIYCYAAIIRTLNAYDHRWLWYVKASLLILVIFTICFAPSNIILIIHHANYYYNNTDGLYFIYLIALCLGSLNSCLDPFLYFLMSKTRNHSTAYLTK
Experimental: PAR3 signaling in Cos 7 cells was also examined. Cos 7 cells were transfected with human PAR1 or PAR3. Cells were then metabolically labelled with ^3H-inositol and phosphoinositide hydrolysis was measured in response to the indicated concentrations of a-thrombin (FIG. 8) or γ-thrombin (FIG. 9) as described by Ishii, et al. and Nanevicz et al. (Ishii, K. et al. (1993) supra; and Nanevicz, T. et al. (1996) J. Biol. Chem. 271:702–706).
Peptides homologous to the tethered domain of PAR3 may be tested as potential agonists of PAR3 activity. Two peptides TFRGAP (SEQ NO:27) and […] (SEQ ID NO:17) were synthesized and tested for their ability to mimic the action of thrombin by causing PAR3 signaling as measured by phosphoinositide hydrolysis. Cos 7 cells expressing human PAR3 were incubated with the peptides at concentrations up to 100 μM.

[4] = tested on: epitope-tagged human PAR3 bearing the F40A tethered ligand domain mutation
[5] = target: human protease-activated receptor 3 (human) (UniProt O00254); experiment: cell-based or functional assay

45Ca release in Xenopus oocytes [1]: 1 µM
Substance: thrombin rendered proteolytically inactive by the active site inhibitor PPACK (enzyme)

Substance: M1 monoclonal antibody (Kodak)
share of M1 antibody binding that was transfection-dependent [2]: > 95%

shift of the α-thrombin dose response curve for PAR3 signaling (data not shown) [3]: 2 logs
Substance: hirugen (peptide)

PAR3 signaling as measured by phosphoinositide hydrolysis (agonist activity) (human PAR3): no detectable signaling
Substance: TFRGAP [synthetic peptide homologous to the tethered ligand domain of PAR3]

Substance: α-thrombin
PAR3 signaling and PAR3 cleavage by thrombin [4]: ablated PAR3 signaling but not PAR3 cleavage by thrombin

PAR3 signaling as measured by phosphoinositide hydrolysis (agonist activity) (human PAR3): no detectable signaling
Substance: TFRGAPPNS [synthetic peptide homologous to the tethered ligand domain of PAR3]

EC50, phosphoinositide hydrolysis in Cos 7 cells [5]: 20 nM
Substance: γ-thrombin (enzyme)
